Assay results taken from PMC12670495 (Molecular Pharmaceutics, 2025).

What was measured:
Details in all cases: both partners purified
[1] = biological target: T1, Prostate-specific membrane antigen (PSMA), human (Homo sapiens, UniProt Q04609); experiment: SPR; Biacore T200, multicycle kinetics; antibody captured on a Protein G chip (~50 RU), PSMA as analyte 25 to 1.5625 nM in HBS-EP+, 35 μL/min, association 600 s, dissociation 2400 s; 1-to-1 binding model with global Rmax
T1 construct: human FOLH1 (PSMA), UniProt Q04609; The methods of the multicycle SPR say only 'PSMA (R&D Systems)'; R&D Systems' recombinant human PSMA is, as far as recalled, the extracellular domain (about K44-A750) with a His tag; also called Human FOLH1; human PSMA; source: bought: R&D Systems (multicycle SPR)

mouse PSMA [2] = biological target: T2, mouse PSMA (Mus musculus, UniProt O35409); experiment: SPR; Biacore T200, single-cycle kinetics at 25 °C; DOTA-conjugated antibodies captured on a Protein G chip (~50 RU), PSMA as analyte 12.5 to 50 nM in HBS-EP+, 40 μL/min; Langmuir (1:1) model
T2 construct: PSMA (Folh1) of mouse; also called murine PSMA

mouse PSMA [3] = biological target: T3, mouse PSMA (Mus musculus, UniProt O35409); experiment: SPR; Biacore T200, single-cycle kinetics, 25 °C, HBS-EP+; antibody-DOTA captured on a Protein G chip (~50 RU); PSMA as analyte, three-point 2-fold dilution 12.5-50 nM, 40 uL/min; association 200 s, dissociation 1500 s; Langmuir 1:1 fit
T3 construct: mouse prostate-specific membrane antigen (PSMA), purified protein; also called PSMA (Mouse); murine PSMA

B1: ANT4044 IgG1 (antibody, V domains shown)
VH: EVQLVQSGAEVKKPGASVKVSCKASGYTFTEYTIHWVRQAPGKGLEWIGNINPNNGGTTYNQKFEDRVTITVDKSTSTAYMELSSLRSEDTAVYYCAAGWNFDYWGQGTTVTVSS
VL: DIQMTQSPSTLSASVGDRVTITCKASQDVGTAVDWYQQKPGQAPKLLIYWASTRHTGVPDRFSGSGSGTDFTLTISRLQPEDFAVYYCQQYNSYPLTFGQGTKVDIK
notes: VH of the humanized antibody ANT4044 (derived from murine J591); IgG1 heavy chain constant region, unmodified; VK of the humanized antibody ANT4044; constant region of the light chain is not described; IgG1; also called unmodified IgG1; ANT4044 unmodified IgG1 construct; source: CHO cells, transiently transfected; purified (Protein A, preparative SEC); copies: 2 + 2
In the case of B1, the Kd [1] is reported as 0.734 nM, the koff [1] is reported as 7.88e-05 s⁻¹ and the kon [1] is reported as 107000 M⁻¹ s⁻¹.

B2: ANT4044 IgG1 (H310A, H435Q) (antibody, V domains shown)
VH: B1 VH
VL: B1 VL
notes: VH of ANT4044, as the heavy chain of m1; IgG1 heavy chain constant region with H310A and H435Q; VK of ANT4044, as the light chain of m1; constant region of the light chain is not described, as the light chain of m1; IgG1; Lead construct; the introduction names 'this engineered PSMA antibody' TLX592 without saying which variant is meant; also called modified IgG1 (H310A, H435Q); PK-modified …
B2 showed a Kd [1] of 0.737 nM, a koff [1] of 7.48e-05 s⁻¹ and a kon [1] of 101000 M⁻¹ s⁻¹.

B3: ANT4044 IgG4 (S228P, L235E, H310A, H435Q) (antibody, V domains shown)
VH: B1 VH
VL: B1 VL
notes: VH of ANT4044, as the heavy chain of m1; IgG4 heavy chain constant region with S228P, L235E, H310A and H435Q; VK of ANT4044, as the light chain of m1; constant region of the light chain is not described, as the light chain of m1; IgG4; also called modified IgG4; source: CHO cells, transiently transfected; purified (Protein G, preparative SEC); copies: 2 + 2
B3 showed a Kd [1] of 0.743 nM, a koff [1] of 0.000104 s⁻¹ and a kon [1] of 139000 M⁻¹ s⁻¹.

B4: ANT4044-DOTA (antibody, V domains shown)
VH: B1 VH
VL: B1 VL
notes: VH of ANT4044, as the heavy chain of m1; VK of ANT4044, as the light chain of m1; constant region of the light chain is not described, as the light chain of m1; source: CHO cells, transiently transfected, purified; conjugated with NHS-DOTA; copies: 2 + 2
B4: no binding (tested: 12.5 to 50 nM tested) (mouse PSMA [2]).

B5: ANT4044-DOTA (antibody, V domains shown)
VH: B1 VH
VL: B1 VL
B5: no binding (tested: 12.5 to 50 nM) (mouse PSMA [3]).
